From publication PMC5362033, “The Vitamin B12-Dependent Photoreceptor AerR Relieves Photosystem Gene Repression by Extending the Interaction of CrtJ with Photosystem Promoters” (mBio, 2017)

B1: CrtJ (natural protein, Rhodobacter capsulatus, UniProt P26167 1-469, looked up)
chain: MTSDGSFLMRREALQRVSPDLLADIVTSACDIALVVSPGRVVESVMVNPQFGSAERFAAWQGARLSQLFSPESAQKLENRLADGPEPGRSLQLELTHAADAFTLPVRYTITRSGEDGTLLLIGRDMQPLAEVQQQLVKAQLALERDYEAQREIETRYRVLLEAHPAPLLIVSMSTGRIADLNLAAAAMIGATRAELIDAPVGQELDGRRRGEFLENLAKIAGSDPLGAVELTIRRSRRKVTVTATLFRAAGDRLLLCRLGEAEARRTRVDDTVELSERLFLKGIDAMVFLDADGTIRAANDAFLYLTDAGSAALVQGRSFADFLSRGAVDLNVLLDNVKRIGHLRHYVTRLNTDFSGQVTVELSATLFHDRATPTIALVIRDSNLADATRIMPGMASNEGLRNVMQMVGYATLRDIVSETTEIIEKMCIETALELTGNNRVAAAELLSLSRQSLYVKLRKFGLLSKDAE
notes: CrtJ, aerobic repressor of photosystem genes, Rhodobacter capsulatus (strain SB1003 is the wild-type parent); calculated molecular mass of the dimer 101.0 kDa; also called CrtJ2; CrtJ dimer; source: E. coli BL21(DE3) bearing pSUMO-CrtJ, overexpressed as SUMO-tagged protein, purified according to previous studies

Legend:
[1] = tested on: CrtJ;AerR (Rhodobacter capsulatus;Rhodobacter capsulatus); test: EMSA; conditions: EMSA with 10 nM bchC DNA, oxidizing (O2) or reducing (10 mM DTT), Hill fit; buffer, salt, pH and temperature not in the material (reported previously, ref. 20)
[2] = target: the molecule itself; test: SEC-MALS; size exclusion chromatography coupled with multiangle light scattering (Wyatt), analysed with ASTRA 6, BSA for calibration; CrtJ alone and CrtJ with added AerR
[3] = target: B1; test: as above; conditions: both partners purified

Molecule: bchC promoter EMSA probe, 325 bp
- binding signal (fold higher affinity than CrtJ alone) [1]: 6

Molecule: B1
- stoichiometry N [2]: 2

B2: AerR (natural protein)
chain: MNGVAELQTVLVNRMVELATGPELGAMDLLFDEFRAAHVPVEEMATHYIPEAARQIGAAWDSDRIGFAQVTIAISRLQELLHALQTLVTADSVGCANGATVLLIVPPGEQHTLGALIVAMELRRRGVSVRIVFAPGLSDLSRLMATTRFDAALITVGSMDRVEICAKLVKTLSSLTKGRMRVAIGGAIVSQRAEALARTGADLVTNDLSLVISEFSLV
- stoichiometry N [3]: 0.5 AerR per CrtJ chain (1:2)
